Test results reported in patent US20020128438A1, “DNA cassette for the production of secretable recombinant trimeric TRAIL proteins, tetracycline/ doxycycline-inducible adeno-associated virus vector, their combination and use in gene therapy” (priority 2000, published 2002).
*1 amine or outer side, *2 acyl side, *3 side chain or, on linkers, in order; H or OH if unused. Where a SMILES comes first, the peptide text is derived from it. Bridges are numbered along the chain shown (N, C = ends). Roman numbers before positions name the chains, in order. [ ]: non-standard residue; d: D form. Actinocin(9to1) = Cc1c2oc3c(C)ccc(C(=O)[*:1])c3nc-2c(C(=O)[*:2])c(N)c1=O; NMeV = CN[C@H](C(=O)O)C(C)C; Sar = CNCC(=O)O

Tests used:
monkey = settings: cited from earlier work
mice = settings: systemic delivery; cited from earlier work
[1] = test system: various cancer cell lines

Question: With “TRAIL: TNF family member, type II transmembrane apoptosis-inducing ligand” as the compound, how does the cytotoxicity in monkey (monkey) read?
Answer: no detectable cytotoxicity

Question: And the cytotoxicity in mice (mice)?
Answer: no detectable cytotoxicity

Question: Which results are given for `Cc1c2oc3c(C)ccc(C(=O)N[C@@H]4C(=O)N[C@H](C(C)C)C(=O)N5CCC[C@H]5C(=O)N(C)CC(=O)N(C)[C@@H](C(C)C)C(=O)O[C@@H]4C)c3nc-2c(C(=O)N[C@@H]2C(=O)N[C@H](C(C)C)C(=O)N3CCC[C@H]3C(=O)N(C)CC(=O)N(C)[C@@H](C(C)C)C(=O)O[C@@H]2C)c(N)c1=O` [ActD, Actinomycin D] (I: T[dV]P[Sar][NMeV] / II: T[dV]P[Sar][NMeV]; ester I:1-I:C, II:1-II:C; linker I:N-II:N via Actinocin(9to1))?
Answer: concentration at which enhancing activity of ActD was obtained ([1]; enhancement of TRAIL-induced apoptosis): 100 ng/mL; effect of ActD on TRAIL-induced apoptosis ([1]; various cancer cell lines): greatly enhanced
